The target in experiment [1] is T1, CD72-Fc (CD72 extracellular domain, aa 117-359, fused to a biotinylated human Fc domain) (human, UniProt P21854 117-359, biotinylated (on the Fc domain; site not stated)).
T1 construct: range 117-359; Expressed in mammalian cells; also called CD72-ECD-Fc protein; recombinant CD72-Fc fusion protein; not shown: human Fc domain
T1 sequence (looked up): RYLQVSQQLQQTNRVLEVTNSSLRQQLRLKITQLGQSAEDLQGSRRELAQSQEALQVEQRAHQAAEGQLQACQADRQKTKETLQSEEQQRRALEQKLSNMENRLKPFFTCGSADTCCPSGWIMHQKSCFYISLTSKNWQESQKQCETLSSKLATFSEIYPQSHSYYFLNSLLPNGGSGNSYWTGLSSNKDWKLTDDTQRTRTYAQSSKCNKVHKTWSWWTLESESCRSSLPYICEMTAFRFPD
The experiment can be described thus: on-yeast affinity measurement, flow cytometry, titration of CD72-Fc. The source says: FIG. 4a-e: Isolation of high-affinity CD72 nanobodies with yeast display (a) Schematic of workflow for in vitro anti-CD72 nanobody selection using yeast display. (b) Structure models of the recombinant Fc-fusion proteins used to perform yeast display selections. The Fc protein on the left was used to negatively select potential off-target nanobodies while the CD72-Fc protein (CD72 extracellular domain fused to a human Fc domain) was used to perform positive selection steps to isolate CD72-specific nanobodies (c) Schematic displaying the nanobody yeast display selection strategy for each MACS and FACS selection round to enrich for CD72-specific nanobody binders. Two rounds of MACS followed by four rounds of FACS with decreasing concentration of CD72 antigen produced high affinity anti-CD72 nanobodies. (d) On-yeast binding of recombinant CD72-Fc fusion protein for CD72-selected nanobodies Nb.B5 (nanobody sequence SEQ ID NO:2) and Nb.C2 (nanobody sequence SEQ ID NO:1) expressed on yeast to determine estimated binding affinities. Kd determined by curve fitting using non-linear least squares regression. (e) Flow cytometry plots of yeast clone Nb.C2 binding to 10 nM CD72-ECD-Fc protein (left) or 10 nM Fc protein (right). […]
For orientation: A flow cytometer gives signals particle by particle.

Experiment [2] addresses T2, CD72-Fc (CD72 extracellular domain, aa 117-359, fused to a biotinylated human Fc domain) (human, UniProt P21854 117-359, biotinylated (on the Fc domain; site not stated)).
T2 chain: T1 sequence (looked up)
The experiment can be described thus: on-yeast binding (yeast display flow cytometry).

Here are results for two molecules from patent US20220251217A1 (University of California, published 2022).

The term Kd denotes the concentration at which binding is half-saturated. A lower Kd goes with tighter binding.

B1: Nb.C2 (VHH)
VHH: QVQLQESGGGLVQAGGSLRLSCAASGTIFDWYSMGWYRQAPGKERELVAGIDTGANTYYADSVKGRFTISRDNAKNTVYLQMNSLKPEDTAVYYCAAHDDGDPWHVYWGQGTQVTVSS
notes: also called yeast clone Nb.C2
Consider B1, for which the binding result in experiment [1] was “binds”. Also, the Kd in experiment [2] stood at 1.5 nM.

B2: Nb.B5 (VHH)
VHH: QVQLQESGGGLVQAGGSLRLSCAASGTIFPVDYMGWYRQAPGKERELVAGINYGSNTYYADSVKGRFTISRDNAKNTVYLQMNSLKPEDTAVYYCAAWQPEGYAVDFYHPYWGQGTQVTVSS
B2: in experiment [1], the binding result is on record as “binds”. The molecule also yielded a dissociation constant (Kd) in experiment [2] of 1 nM.
